Data: patent US20200254071A1, “COMPOSITIONS AND METHODS FOR THROMBOEMBOLISM DISSOLUTION” (priority 2016, published 2020)

Legend:
[1] = test system: thrombus or embolus in cats; conditions: cited from earlier work
[2] = test system: thrombus or embolus in cats with ATE; conditions: cited from earlier work
[3] = test system: fibrinolytic activity in the plasma; assay: oral administration of nattokinase: fibrinolytic activity in the plasma; type: in vivo
From the text: There are no known studies that examine the efficacy of nattokinase as a thrombolytic agent in cats.

blood clots = assay: thrombolytic activity of the single agents, inventor's private research study; type: in vivo; conditions: single agent
From the text: However, both agents can be dissolved in stomach acids, rendering certain dosage forms nearly useless as thrombolytic agents. This may explain why the potency of previous oral thrombolytics is decreased in comparison to injected thrombolytic agents. Enteric coatings reduce the active ingredients' rate of digestion in stomach acids, leading to enhanced efficacy of the active ingredient(s).

[4] = purified form; cited from earlier work
[5] = in vivo
Experimental: To ensure the efficacy of these two thrombolytic agents, an enteric coating is appropriate for some orally administered embodiments. The enteric coating allows the nattokinase and rutin bioflavonoid to travel through the acidic environment of the stomach without being dissolved. Nattokinase and rutin can then be absorbed into the bloodstream or circulation via the small intestine. Once absorbed, nattokinase remains active in the bloodstream for approximately 12 hours. In one embodiment, the enteric coating is composed of methacrylic acid copolymer and triethyl citrate. Additional ingredients may include, for example, arabinoglactan, microcrystalline cellulose, maltodextrin, stearic acid, croscarmellose sodium, silicon dioxide. During this clinical trial, participants were not on any other thrombolytic or fibrinolytic (blood thinning) agents.

[6] = test system: artificially induced thrombosis; conditions: dogs, capsules orally; cited from earlier work

With “tPA: tissue-plasminogen activator, veterinary drug with the potential to dissolve a thrombus or embolus” as the molecule, how does the “fatal complications due to metabolic acidosis and hyperkalemia” value ([1]; cats with ATE) read?
Its value is 70%.

What about the “cats with perfusion restored to their limbs” value ([1]; fraction of cats given the drug) of the same molecule?
The value was “about two-thirds”.

What does the source list for “streptokinase: veterinary drug with the potential to dissolve a thrombus or embolus”?
cats with pulses restored ([2]; fraction of 46 cats): about half; cats with motor function returned to their limbs ([2]; within 24 hours): 30%

B1: nattokinase: naturally occurring proteolytic enzyme derived from natto, soybeans fermented with Bacillus subtilis natto (protein, UniProt P35835 107-381, looked up)
Subtilisin NAT: AQSVPYGISQIKAPALHSQGYTGSNVKVAVIDSGIDSSHPDLNVRGGASFVPSETNPYQDGSSHGTHVAGTIAALNNSIGVLGVAPSASLYAVKVLDSTGSGQYSWIINGIEWAISNNMDVINMSLGGPTGSTALKTVVDKAVSSGIVVAAAAGNEGSSGSTSTVGYPAKYPSTIAVGAVNSSNQRASFSSVGSELDVMAPGVSIQSTLPGGTYGAYNGTSMATPHVAGAAALILSKHPTWTNAQVRDRLESTATYLGNSFYYGKGLINVQAAAQ
Which “fibrinolytic activity in the plasma and production of tissue plasminogen activator” value [3] does the source give for B1 here?
The value was “mild and frequent enhancement”.

What about the thrombolytic activity (blood clots) of the same molecule?
Its thrombolytic activity is “demonstrated thrombolytic activity”.

And the “optimum pH of enzyme” value [4]?
The value was 7.

What about the “optimum temperature of enzyme” value [4] of the same molecule?
The value was 37 °C.

And the “time active in the bloodstream” value [5]?
The value was “approximately 12 hours”.

What about the “lysis of the thrombi by angiography” value [6] of the same molecule?
The value was “lysis of the thrombi was observed”.
